T1: his-tagged human full-length kindlin2 (human, UniProt Q96AC1 1-680)
T1 construct: human full-length kindlin2 in gWIZ vector; also called purified kindlin2; recombinant kindlin2; source: Expi293F cells, purified
T1 sequence (looked up): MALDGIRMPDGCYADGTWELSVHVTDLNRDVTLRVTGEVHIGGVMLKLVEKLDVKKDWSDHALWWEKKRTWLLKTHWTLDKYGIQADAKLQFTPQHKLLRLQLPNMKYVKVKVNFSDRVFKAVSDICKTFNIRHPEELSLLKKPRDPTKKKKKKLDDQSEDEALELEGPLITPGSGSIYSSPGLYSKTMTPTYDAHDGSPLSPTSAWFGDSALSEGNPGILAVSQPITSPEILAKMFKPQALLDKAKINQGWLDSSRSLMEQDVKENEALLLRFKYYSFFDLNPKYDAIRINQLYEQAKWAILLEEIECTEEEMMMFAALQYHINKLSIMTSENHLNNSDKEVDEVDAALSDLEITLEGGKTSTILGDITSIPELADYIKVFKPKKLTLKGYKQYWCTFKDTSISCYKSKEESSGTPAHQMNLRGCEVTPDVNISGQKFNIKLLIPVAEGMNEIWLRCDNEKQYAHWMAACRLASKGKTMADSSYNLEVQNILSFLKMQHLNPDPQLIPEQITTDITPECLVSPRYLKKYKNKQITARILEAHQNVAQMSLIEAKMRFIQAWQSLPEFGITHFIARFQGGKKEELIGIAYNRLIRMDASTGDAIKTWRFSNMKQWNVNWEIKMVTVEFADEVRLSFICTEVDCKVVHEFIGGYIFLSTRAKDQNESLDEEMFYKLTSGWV


The binders below were run against T1, his-tagged human full-length kindlin2 (assay: pull-down; in vitro binding assay: purified kindlin2 mixed with purified cytoplasmic tails immobilised on NeutrAvidin beads; Western blot with anti-kindlin2 antibody). Settings: both partners purified.

| Binder | binding result |
| --- | --- |
| his/Avi-tagged cytoplasmic tail of ephrinB2 WT (domain or fragment, UniProt P52799 251-333, looked up, biotinylated, ephrinB2 cytoplasmic tail; Vector (his/Avi-tagged in pET15) and purification after Pfaff et al, 1998; The forward primer printed for the 4A construct reads KYRRR after the HindIII site, which may mark the start of the tail; also called ephrinB2 WT tail; ephrinB2 cytoplasmic tail; source: Escherichia coli (DE3), purified) KYRRRHRKHSPQHTTTLSLSTLATPKRSGNNNGSEPSDIIIPLRTADSVFCPHYEKVSGDYGHPVYIVQEMPPQSPANIYYKV | binds |
| his/Avi-tagged cytoplasmic tail of ephrinB2 Y331A (domain or fragment, UniProt P52799 251-333, looked up, biotinylated, ephrinB2 cytoplasmic tail with Y331A; source: Escherichia coli (DE3), purified) KYRRRHRKHSPQHTTTLSLSTLATPKRSGNNNGSEPSDIIIPLRTADSVFCPHYEKVSGDYGHPVYIVQEMPPQSPANIYAKV | binds |
| his/Avi-tagged cytoplasmic tail of ephrinB2 S325A (domain or fragment, UniProt P52799 251-333, looked up, biotinylated, ephrinB2 cytoplasmic tail with S325A; source: Escherichia coli (DE3), purified) KYRRRHRKHSPQHTTTLSLSTLATPKRSGNNNGSEPSDIIIPLRTADSVFCPHYEKVSGDYGHPVYIVQEMPPQAPANIYYKV | binds |

Results, then the binder that gave them:

| binding result | Binder |
| --- | --- |
| binds | his/Avi-tagged cytoplasmic tail of ephrinB2 2A (domain or fragment, UniProt P52799 251-333, looked up, biotinylated, ephrinB2 cytoplasmic tail with N328A and Y331A; also called double point mutation (N328A and Y331A); source: Escherichia coli (DE3), purified) KYRRRHRKHSPQHTTTLSLSTLATPKRSGNNNGSEPSDIIIPLRTADSVFCPHYEKVSGDYGHPVYIVQEMPPQSPAAIYAKV |
| binds | his/Avi-tagged cytoplasmic tail of ephrinB2 N328A (domain or fragment, UniProt P52799 251-333, looked up, biotinylated, ephrinB2 cytoplasmic tail with N328A; source: Escherichia coli (DE3), purified) KYRRRHRKHSPQHTTTLSLSTLATPKRSGNNNGSEPSDIIIPLRTADSVFCPHYEKVSGDYGHPVYIVQEMPPQSPAAIYYKV |
